# Experimental data reported in article PMC2229591.
# What was measured:
# [1] = molecular target: filamentous actin (rabbit muscle) (rabbit) (UniProt P68135); experiment: co-sedimentation; conditions: scale: actin per fragment
# [2] = molecular target: C0 fragment of cardiac myosin binding protein C (MyBP-C) (human); experiment: pull-down + co-IP
stoichiometry N [1],concentration that gives half-maximum binding [2] [µM],Substance
7,–,C0C2 fragment of cardiac MyBP-C (domain or fragment)
–,< 10,filamentous actin (rabbit muscle) (from UniProt P68135 1-377) (natural protein)
